# Data as given in patent publication CN114075288A (CHIA TAI TIANQING PHARMACEUTICAL GROUP CO LTD, dated 2022).
# T1: 人PD-L2，稳定表达于U2OS细胞系 (PD-L2-U2OS) (human, UniProt Q9BQ51 20-273)
# T1 construct: whole, on cells; also called U2OS-PD-L2; 配体细胞
# T1 sequence (looked up): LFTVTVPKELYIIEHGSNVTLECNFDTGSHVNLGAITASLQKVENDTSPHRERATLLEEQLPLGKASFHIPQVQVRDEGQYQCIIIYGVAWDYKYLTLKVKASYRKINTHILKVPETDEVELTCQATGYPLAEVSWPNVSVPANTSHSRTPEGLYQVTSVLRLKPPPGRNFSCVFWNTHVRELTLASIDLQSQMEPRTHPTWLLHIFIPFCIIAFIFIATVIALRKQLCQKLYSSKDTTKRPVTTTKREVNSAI
# T2: hPD-L2-His (ACRObiosystems，目录号:PD2-H5220) (human, UniProt Q9BQ51 20-219)
# T2 construct: Bought protein (ACRObiosystems PD2-H5220); also called 人PD-L2抗原; 重组体hPD-L2-His蛋白; not shown: His tag
# T2 sequence (looked up): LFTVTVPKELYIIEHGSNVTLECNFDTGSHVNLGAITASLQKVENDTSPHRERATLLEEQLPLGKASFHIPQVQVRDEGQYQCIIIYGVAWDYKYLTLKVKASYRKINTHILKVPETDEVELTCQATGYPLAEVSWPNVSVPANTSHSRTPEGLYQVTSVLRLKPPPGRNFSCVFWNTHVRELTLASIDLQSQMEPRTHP
# Legend:
# [1] = target: T1, 人PD-L2，稳定表达于U2OS细胞系 (PD-L2-U2OS); assay: flow cytometry on PD-L2-U2OS cells
# [2] = target: T1, 人PD-L2，稳定表达于U2OS细胞系 (PD-L2-U2OS); assay: cell-based or functional assay
# [3] = target: T2, hPD-L2-His …; assay: ELISA, coated hPD-L2-His
Binder,EC50 [1] [µg/mL],"IC50(ng/mL), 化学发光信号, 基于细胞的抗体阻断分析 [2] [ng/mL]",EC50 [3] [µg/mL]
"人源化24A3-1.1抗体 (antibody, human IgG1, kappa, V domains shown, human IgG1 / human kappa; also called Hz24A3-1.1) VH: QVQLVQSGAEVKKPGASVKVSCKASGYAFTNYLIEWVRQAPGQGLEWMGVINPVNGGISYAQKFQGRVTMTADKSTSTVYMELSSLRSEDTAVYYCARSGGNYGGDYWGQGTLVTVSS VL: DVVMTQSPDSLAVSLGERATISCKASQSVSNEVAWYQQKPGQPPKLLIYYASHRYTGVPDRFSGSGSGTDFTLTISSLQAEDVAVYYCQQHFSSPLTFGQGTKVEIKR",1.05,1950,0.167
"嵌合14E7抗体 (antibody, human IgG1, kappa, V domains shown, also called Xi14E7) VH: QVQLQQSGPQLVRPGASVKISCKASGYSFTSYWMHWVKQRPGQGLDWIGMIDPSDSETRLNQKFKDKATLTVDKSSSTAYMQLSSPTSEDSAVYYCARWALQYFDYWGQGTTLTVSS VL: DIVMTQSQKFMSTTVGDRVSITCKASQNVGAAVAWYQQKPGQSPKLLIYSASNRYPGVPDRFTGSGSGTDFTLTISNMHSEDLADYFCQQYRPYPFTFGGGTKLEIKR",1.12,342,
"人源化14E7-1.1抗体 (antibody, human IgG1, kappa, V domains shown, human IgG1 / human kappa; also called Hz14E7-1.1) VH: QVQLVQSGAEVKKPGASVKVSCKASGYSFTSYWMHWVRQAPGQGLEWMGMIDPSDSETRYAQKFQGRVTMTVDKSTSTVYMELSSLRSEDTAVYYCARWALQYFDYWGQGTLVTVSS VL: DIQMTQSPSTLSASVGDRVTITCKASQNVGAAVAWYQQKPGKAPKLLIYSASNRYPGVPSRFSGSGSGTEFTLTISSLQPDDFATYYCQQYRPYPFTFGQGTKVEIKR",0.443,112,0.115
"人源化25G4-1.1抗体 (antibody, human IgG1, kappa, V domains shown, human IgG1 / human kappa; also called Hz25G4-1.1) VH: QVQLVQSGAEVKKPGASVKVSCKASGYTFTTNWMNWVRQAPGQGLEWMGRIDPSDSETHYAQKFQGRVTMTVDKSTNTVYMELSSLRSEDTAVYYCVREGIYGPWFAYWGQGTLVTVSS VL: DIQMTQSPSSLSASVGDRVTITCRASESVDNYGISLMHWYQQKPGKAPKLLIYRASDLESGVPSRFSGSGSRTDFTLTISSLQPEDFATYYCQQSDKDPPTFGQGTKVEIKR",0.483,1000,0.0689
"人源化7A7-1.1抗体 (antibody, human IgG1, kappa, V domains shown, human IgG1 / human kappa; also called Hz7A7-1.1) VH: QVQLVQSGAEVKKPGASVKVSCKASGYSFSGYTMNWVRQAPGQGLEWMGLISPYNGVTTYAQKFQGRVTMTVDTSTNTVYMELSSLRSEDTAVYYCARGVTVPLRFDVWGQGTLVTVSS VL: DIQMTQSPSSLSASVGDRVTITCKSSQSLLNSGNQKNYLTWYQQKPGKAPKLLIYWASTRESGVPSRFSGSGSGTDFTLTISSLQPEDFATYYCQNDDSYPLTFGQGTKVEIKR",0.613,585,0.308
"人源化7A7-1.2抗体 (antibody, human IgG1, kappa, V domains shown, human IgG1 / human kappa; also called Hz7A7-1.2) VH: QVQLVQSGAEVKKPGASVKVSCKASGYSFSGYTMNWVRQAPGQGLEWMGLISPYQGVTTYAQKFQGRVTMTVDTSTNTVYMELSSLRSEDTAVYYCARGVTVPLRFDVWGQGTLVTVSS VL: DIQMTQSPSSLSASVGDRVTITCKSSQSLLNSGNQKNYLTWYQQKPGKAPKLLIYWASTRESGVPSRFSGSGSGTDFTLTISSLQPEDFATYYCQNDDSYPLTFGQGTKVEIKR",0.833,374,0.68

# Continued, values first:
EC50 [1] [µg/mL],"IC50(ng/mL), 化学发光信号, 基于细胞的抗体阻断分析 [2] [ng/mL]",EC50 [3] [µg/mL],Binder
0.62,1420,0.223,"人源化24A3-1.2抗体 (antibody, human IgG1, kappa, V domains shown, human IgG1 / human kappa; also called Hz24A3-1.2) VH: QVQLVQSGAEVKKPGASVKVSCKASGYAFTNYLIEWVRQAPGQGLEWMGVINPVQGGISYAQKFQGRVTMTADKSTSTVYMELSSLRSEDTAVYYCARSGGNYGGDYWGQGTLVTVSS VL: DVVMTQSPDSLAVSLGERATISCKASQSVSNEVAWYQQKPGQPPKLLIYYASHRYTGVPDRFSGSGSGTDFTLTISSLQAEDVAVYYCQQHFSSPLTFGQGTKVEIKR"
0.54,680,,"嵌合25G4抗体 (antibody, human IgG1, kappa, V domains shown, also called Xi25G4) VH: QVQLQQPGVEVVRPGAPVKLSCKASGYTFTTNWMNWVKQRPGRGLEWIGRIDPSDSETHYNQQFKDKATLTVDKSSNTAYIQLSSLTSEDSAVYYCVREGIYGPWFAYWGQGTLVTVSA VL: DIVMTQSPASLAVSLGQRATISCRASESVDNYGISLMHWYQQKPGQPPKLLIYRASDLESGIPARFSGSGSRTDFTLTINPVETDDVATYYCQQSDKDPPTFGAGTKLELKR"
0.43,,,"嵌合7A7抗体 (antibody, human IgG1, kappa, V domains shown, made in Expi-CHO; also called Xi7A7) VH: EVQLQQSGPELVKPGASMKISCKASGYSFSGYTMNWVKQSLGKNLEWIGLISPYNGVTTYNQKFKGKASLTVDTSSNTAYMELLSLTSDDSAVYYCARGVTVPLRFDVWGAGTPVTVSS VL: DIVMTQSPSSLTVTTGEKVTMSCKSSQSLLNSGNQKNYLTWYQQKTGQPPKLLIYWASTRESGVPDRFTGSGSGTDFTLTINNVQAEDLAVYYCQNDDSYPLTFGAGTKLELKR"
,2660,0.0333,"人源化14E7-1.2抗体 (antibody, human IgG1, kappa, V domains shown, human IgG1 / human kappa; also called Hz14E7-1.2) VH: QVQLVQSGAEVKKPGASVKVSCKASGYSFTSYWMHWVRQAPGQGLEWMGMIDPSESETRYAQKFQGRVTMTVDKSTSTVYMELSSLRSEDTAVYYCARWALQYFDYWGQGTLVTVSS VL: DIQMTQSPSTLSASVGDRVTITCKASQNVGAAVAWYQQKPGKAPKLLIYSASNRYPGVPSRFSGSGSGTEFTLTISSLQPDDFATYYCQQYRPYPFTFGQGTKVEIKR"
,700,0.0874,"人源化25G4-1.2抗体 (antibody, human IgG1, kappa, V domains shown, human IgG1 / human kappa; also called Hz25G4-1.2) VH: QVQLVQSGAEVKKPGASVKVSCKASGYTFTTNWMNWVRQAPGQGLEWMGRIDPSESETHYAQKFQGRVTMTVDKSTNTVYMELSSLRSEDTAVYYCVREGIYGPWFAYWGQGTLVTVSS VL: DIQMTQSPSSLSASVGDRVTITCRASESVDNYGISLMHWYQQKPGKAPKLLIYRASDLESGVPSRFSGSGSRTDFTLTISSLQPEDFATYYCQQSDKDPPTFGQGTKVEIKR"
0.967,221,,"嵌合24A3抗体 (antibody, human IgG1, kappa, V domains shown, also called Xi24A3) VH: QVQLQQSGAEVVRSGTSVKVSCKASGYAFTNYLIEWVKQRPGQGLEWIGVINPVNGGISYNEKFKGKATLTADKSSSTVYMQLSSLTSDDSAVYFCIRSGGNYGGDYWGQGTTLTVSS VL: DVVVTQTPKFLPVTAEDRVTITCKASQSVSNEVAWYQQKPGQSPKLLIYYASHRYTGVPDRFTGSGSGTDFTFTISSVQVEDLAVYFCQQHFSSPLTFGAGTKLELKR"
0.924,144,1.12,"人源化7A7-2.1抗体 (antibody, human IgG1, kappa, V domains shown, human IgG1 / human kappa; also called Hz7A7-2.1) VH: QVQLVQSGAEVKKPGASVKVSCKASGYSFSGYTMNWVRQAPGQGLEWMGLISPYNGVTTYAQKFQGRVTMTVDTSTNTVYMELSSLRSEDTAVYYCARGVTVPLRFDVWGQGTLVTVSS VL: DIQMTQSPSSLSASVGDRVTITCKSSQSLLQSGNQKNYLTWYQQKPGKAPKLLIYWASTRESGVPSRFSGSGSGTDFTLTISSLQPEDFATYYCQNDDSYPLTFGQGTKVEIKR"
